Measurements taken from patent US20130189255A1, “FUSIONS AND CONJUGATES OF INSULINOTROPIC AGENTS” (GLAXO GROUP LIMITED, priority 2008, published 2013).

Biological target: human GLP-1 receptor (human) (UniProt P43220)
Experiment: cell-based or functional assay

Sequence of human GLP-1 receptor (human) (P43220 24-463): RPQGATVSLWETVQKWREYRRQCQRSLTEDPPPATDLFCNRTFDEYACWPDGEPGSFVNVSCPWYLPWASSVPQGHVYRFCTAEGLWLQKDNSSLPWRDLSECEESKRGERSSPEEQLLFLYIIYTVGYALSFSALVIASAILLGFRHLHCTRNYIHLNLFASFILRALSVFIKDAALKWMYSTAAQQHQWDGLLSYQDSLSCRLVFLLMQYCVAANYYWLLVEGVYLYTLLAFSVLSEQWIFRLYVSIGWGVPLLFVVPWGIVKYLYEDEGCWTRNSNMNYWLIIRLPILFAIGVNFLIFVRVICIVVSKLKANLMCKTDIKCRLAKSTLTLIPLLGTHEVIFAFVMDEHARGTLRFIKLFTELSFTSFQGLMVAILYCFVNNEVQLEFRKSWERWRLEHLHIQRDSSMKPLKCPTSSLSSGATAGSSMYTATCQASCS

Q: Which results are given for “GLP-1 7-36 (from UniProt P01275 21-180) (peptide)”?
A: GLP-1R BA (10 uM albumin) EC50 (pM) n = 2 (CRE-luciferase reporter in CHO 6CRE GLP1R cells): 19 pM; GLP-1R BA EC50 (pM) n = 3 (CRE-luciferase reporter in CHO 6CRE GLP1R cells): 21 pM
